Consider 7 molecules from article PMC1472246, “Structural Basis for a Munc13–1 Homodimer to Munc13–1/RIM Heterodimer Switch” (PLoS Biology, 2006).

Where two headings read alike, the source gives them in different places.

The chains are these.
B2: Munc13–1(3–209) (domain or fragment, rat, UniProt Q62768 3-209, looked up)
chain: LLCVGVKKAKFDGAQEKFNTYVTLKVQNVKSTTIAVRGSQPSWEQDFMFEINRLDLGLTVEVWNKGLIWDTMVGTVWIPLRTIRQSNEEGPGEWLTLDSQAIMADSEICGTKDPTFHRILLDAHFELPLDIPEEEARYWAKKLEQLNAMRDQDEYSFQDQQDKPLPVPSSQCCNWNYFGWGEQNDDPDSAVDDRDSDYRSETSNSIP
notes: Munc13-1, rat, residues 3-209; Forms a homodimer (AUC); 15N-labelled for NMR; source: bacteria, GST fusion, purified (glutathione-Sepharose, GST cleaved, size-exclusion or ion-exchange chromatography)
B4: Munc13–1(3–150) (domain or fragment, rat, UniProt Q62768 3-150, looked up)
chain: LLCVGVKKAKFDGAQEKFNTYVTLKVQNVKSTTIAVRGSQPSWEQDFMFEINRLDLGLTVEVWNKGLIWDTMVGTVWIPLRTIRQSNEEGPGEWLTLDSQAIMADSEICGTKDPTFHRILLDAHFELPLDIPEEEARYWAKKLEQLNA
notes: Munc13-1, rat, residues 3-150 (C2A domain and C-terminal extension); Forms a homodimer (AUC); 15N-labelled for NMR; source: bacteria, GST fusion, purified (glutathione-Sepharose, GST cleaved, size-exclusion or ion-exchange chromatography)

In series [1] the target is RIM2α ZF domain (Rattus norvegicus) (UniProt Q9JIS1). The following applies: cited from earlier work.
For series [2] the target is unchanged. The following applies: cited from earlier work. This is another data set of the same source.
Series [3] has as its target Munc13–1(3–150)(K32E) (rat) (UniProt Q62768). The series is described as follows: ITC; 200 μM Rim2α(82-142) injected into 10-20 μM Munc13-1(3-150)(K32E) in the cell; 20 °C; 30 mM Tris pH 7.4, 150 mM NaCl, 1 mM TCEP; single-site model; apparent Kd. (Isothermal titration calorimetry measures the heat released or taken up as one component is titrated into another.)
The target of the series “Munc13–1(3–209)” is B2. The series is described as follows: SEC; gel filtration on Superdex S75 or S200; 30 mM Tris-HCl, 150 mM NaCl, 1 mM TCEP, pH 7.4; isolated proteins and their mixtures (Figures 1B, 4A). The following applies: both partners purified. For orientation: In gel filtration, larger molecules generally elute earlier.
For the series “Munc13–1(3–150)”, the target named is B4. The description is as above. The following applies: both partners purified.
Series [4] deals with the molecule itself. Briefly: AUC; sedimentation equilibrium at 20,000-35,000 rpm, 4 °C; 30 mM Tris pH 8.0, 150 mM NaCl, 1 mM TCEP; loading 12.46-13.65 μM; monomer/dimer equilibrium model, dimer to monomers; the paper notes that constants below 50-100 nM are not quite accurate.

As for Munc13-1 3-150 (from UniProt Q62768), in series [1], the Kd was 350 nM.

On to Munc13-1 3-209 (from UniProt Q62768), for which the Kd in series [2] is 70 nM.

B1: RIM2α(82–142) (domain or fragment, rat, UniProt Q9JIS1-1 82-142, looked up)
chain: QQEQKGDAPTCGICHKTKFADGCGHNCSYCQTKFCARCGGRVSLRSNKVMWVCNLCRKQQE
notes: also called RIM2α ZF domain; RIM2α zinc-finger domain; source: bacteria, GST fusion, purified (glutathione-Sepharose, GST cleaved, size-exclusion or ion-exchange chromatography)
What is called stoichiometry N is a count of units in the complex or per binding partner. With B1, in series [3], the Kd amounted to 100 nM. The stoichiometry N in series [3] came to 1. Besides, the binding result in the series with Munc13–1(3–209) and with Munc13–1(3–150) was “binds” throughout.

Consider B2, for which, in series [4], the Kd was determined as 1.9 nM and the “stoichiometry N” value was found to be 2.

B3: Munc13–1(3–132) (domain or fragment, rat, UniProt Q62768 3-132, looked up)
chain: LLCVGVKKAKFDGAQEKFNTYVTLKVQNVKSTTIAVRGSQPSWEQDFMFEINRLDLGLTVEVWNKGLIWDTMVGTVWIPLRTIRQSNEEGPGEWLTLDSQAIMADSEICGTKDPTFHRILLDAHFELPLD
notes: Forms a homodimer (AUC); source: bacteria, GST fusion, purified (glutathione-Sepharose, GST cleaved, size-exclusion or ion-exchange chromatography)
Turning to B3, in series [4], the Kd is 80 nM and the “stoichiometry N” value is 2.

Turning to B4, in series [4], the Kd came to 5.2 nM and the “stoichiometry N” value worked out at 2.

B5: Munc13–1(3–128) (domain or fragment, rat, UniProt Q62768 3-128, looked up)
chain: LLCVGVKKAKFDGAQEKFNTYVTLKVQNVKSTTIAVRGSQPSWEQDFMFEINRLDLGLTVEVWNKGLIWDTMVGTVWIPLRTIRQSNEEGPGEWLTLDSQAIMADSEICGTKDPTFHRILLDAHFE
notes: Cloned into a modified pGEX-KG vector with a TEV protease cleavage site; Forms a homodimer (AUC, crystal structure); 15N-labelled for NMR; also called Munc13–1 C2A domain; Munc13–1 C2A-domain homodimer; source: bacteria, GST fusion, purified (glutathione-Sepharose, GST cleaved, size-exclusion or ion-exchange chromatography)
With B5, in series [4], the Kd came out at 310 nM and the “stoichiometry N” value came to 2.
